In FireProtDB (doi:10.1016/s0022-2836(99)80018-7):

Conditions: Bacillus amyloliquefaciens; pH 6.3; 25 °C; Urea; Fluorescence; MES 50 mM; reversible: yes; whole UniProt chain shown

B1: Ribonuclease wild type, P00648 (protein)
chain: MMKMEGIALKKRLSWISVCLLVLVSAAGMLFSTAAKTETSSHKAHTEAQVINTFDGVADYLQTYHKLPDNYITKSEAQALGWVASKGNLADVAPGKSIGGDIFSNREGKLPGKSGRTWREADINYTSGFRNSDRILYSSDWLIYKTTDHYQTFTKIR
denaturant m value: 2.02 kcal/mol/M | denaturant midpoint (higher = more stable): 4.58 M | unfolding free energy: 41.5 kJ/mol
